Where only a bound is given, the exact number is not on record here.

The term IC50 denotes the concentration at which inhibition is half-maximal.

Series [1] concerns the target T1, GST-Bicc1-KH (UniProt Q99MQ1).
T1 sequence (Q99MQ1 whole entry, looked up): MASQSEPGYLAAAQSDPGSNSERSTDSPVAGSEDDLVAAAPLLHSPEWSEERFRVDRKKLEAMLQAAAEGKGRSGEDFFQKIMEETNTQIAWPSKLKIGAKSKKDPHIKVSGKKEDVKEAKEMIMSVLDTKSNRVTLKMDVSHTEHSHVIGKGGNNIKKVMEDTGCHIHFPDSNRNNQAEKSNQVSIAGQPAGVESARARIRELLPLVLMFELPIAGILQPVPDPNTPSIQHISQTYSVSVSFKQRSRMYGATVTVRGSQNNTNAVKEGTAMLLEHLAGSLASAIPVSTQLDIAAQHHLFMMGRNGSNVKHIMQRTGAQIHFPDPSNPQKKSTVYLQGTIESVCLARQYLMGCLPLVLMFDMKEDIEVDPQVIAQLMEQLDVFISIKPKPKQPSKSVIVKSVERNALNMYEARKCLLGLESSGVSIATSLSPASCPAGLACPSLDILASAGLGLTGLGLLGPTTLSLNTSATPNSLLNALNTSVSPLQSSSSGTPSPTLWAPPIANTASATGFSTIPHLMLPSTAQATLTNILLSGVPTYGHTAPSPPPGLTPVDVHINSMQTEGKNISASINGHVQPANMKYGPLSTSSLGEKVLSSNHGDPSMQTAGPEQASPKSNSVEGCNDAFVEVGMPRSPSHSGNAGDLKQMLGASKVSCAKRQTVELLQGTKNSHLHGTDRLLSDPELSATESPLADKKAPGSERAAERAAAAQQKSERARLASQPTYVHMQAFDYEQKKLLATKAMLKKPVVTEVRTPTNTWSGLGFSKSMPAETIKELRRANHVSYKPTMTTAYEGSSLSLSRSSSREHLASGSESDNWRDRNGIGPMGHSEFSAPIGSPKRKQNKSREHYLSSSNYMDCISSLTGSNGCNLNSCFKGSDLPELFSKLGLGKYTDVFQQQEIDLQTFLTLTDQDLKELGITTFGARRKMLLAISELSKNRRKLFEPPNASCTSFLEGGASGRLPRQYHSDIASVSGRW
Put plainly: competition EMSA. The following applies: 200 nM protein, 10 mM Tris-HCl pH 8, 100 mM KCl, 2.5 mM MgCl2, 2.5% glycerol, 1 mM DTT, 1 ug yeast tRNA in 20 uL, on ice 30 min, 1 pmol tagged RNA + 2.5 pmol DNA probe, 5% …. A general note: Mobility shift assays separate free from complexed probe on a gel.

Series [2] concerns the target T1, GST-Bicc1-KH. The series can be described thus: EMSA. The following applies: RNP1; apparent Kd; yeast tRNA present; 10 mM Tris-HCl pH 8, 100 mM KCl, 2.5 mM MgCl2, 2.5% glycerol, 1 mM DTT, 1 ug yeast tRNA in 20 uL, on ice 30 min; 1 pmol tagged RNA + 2.5 pmol DNA probe; 5% ….

“GAAAAAGGUGACCUGAAUGAUGUGCAUCGGGUCAAGAGAGCAGAA [66-110 Mut1 (GACG to AAGG)]”: in the series with GST-Bicc1-KH [1] (vs labelled 66-110), the 50% inhibitory concentration (IC50) is more than 1000 nM.

Regarding “GAAAGACGUAAGCUGAAUGAUGUGCAUCGGGUCAAGAGAGCAGAA [66-110 Mut2 (UGAC to UAAG)]”, the IC50 with GST-Bicc1-KH [1] (vs labelled 66-110) worked out at 654 nM.

With “GAAAGACGUGACCUGAAUGAUGUGCAUCGGGUCAAGAGAGCAGAA [Dand5 3'-UTR 66-110 competitor]”, the 50% inhibitory concentration (IC50) with GST-Bicc1-KH [1] (vs labelled 66-110) was 203 nM.

For “GAAAGACGUGACCUGAAUGAUGUGCAUCGGGUCAAGAGAGCAGAAUGUCUGGGCAACAGGCUCAGG / CTGAGCCTGTTGCCCAGAC [Dand5 3'-UTR 66-110 probe]”, the Kd with GST-Bicc1-KH [2] amounted to 120 nM.

On to “GAAAGACGUGACCUGAAUGAUGUGCAUCGGGUCACGUCUUUCGAA [66-110 Stem+ (GACG masked in elongated stem)]”, for which, in the series with GST-Bicc1-KH [1] (vs labelled 66-110), the 50% inhibitory concentration (IC50) was more than 1000 nM.

“GCUGAGCAUCCUAGAGGAAUGCGCAGGACAUGAAUGAACCUUGGCAAGAAGCAGGAGACGCAAUAGAAAGACGUGACCUGAAUGAUGUGCAUCGGGUCAAGAGAGCAGAAUUGGACAGGGCCAGAAUACUAGACAUGGUCCCCCAGUCAUGGGUUUAGACCACUAAUAGUCGUAGAAUGUGGGGCUAGGGUAUAACUCAGUGGGAGAGGGCUUGCCUAGCAUGCA [Dand5 3'-UTR 1-225 competitor]”: in the series with GST-Bicc1-KH [1] (vs labelled 1-225), the IC50 is 283 nM.

Consider “GCUGAGCAUCCUAGAGGAAUGCGCAGGACAUGAAUGAACCUUGGCAAGAAGCAGGAGACGCAAUAGAAAGACGUGACCUGAAUGAUGUGCAUCGGGUCAAGAGAGCAGAAUUGGACAGGGCCAGAAUACUAGACAUGGUCCCCCAGUCAUGGGUUUAGACCACUAAUAGUCGUAGAAUGUGGGGCUAGGGUAUAACUCAGUGGGAGAGGGCUUGCCUAGCAUGCAUGUCUGGGCAACAGGCUCAGG / CTGAGCCTGTTGCCCAGAC [Dand5 3'-UTR 1-225 probe]”, for which the Kd in the series with GST-Bicc1-KH [2] worked out at 233 nM.

Take “UGAACCUUGGCAAGAAGCAGGAGACGCAAUAGAAAGACGUGACCUGAAUGAUGUGCAUCGGGUCAAGAGAGCAGAAUUGGACAGGGCCAGAAUACUAGACAUGGUCCCCCAGUCAUGGGUUUA [Dand5 3'-UTR 35-157 competitor]”: in the series with GST-Bicc1-KH [1] (vs labelled 35-157), the IC50 was determined as 191 nM.

Turning to “UGAACCUUGGCAAGAAGCAGGAGACGCAAUAGAAAGACGUGACCUGAAUGAUGUGCAUCGGGUCAAGAGAGCAGAAUUGGACAGGGCCAGAAUACUAGACAUGGUCCCCCAGUCAUGGGUUUAUGUCUGGGCAACAGGCUCAGG / CTGAGCCTGTTGCCCAGAC [Dand5 3'-UTR 35-157 probe]”, the Kd with GST-Bicc1-KH [2] amounted to 120 nM.

For the sequence “UGAAGACGUGACUUCUAUUCGUAUGUGAUAUGUGGAGGUUAAAAA [226-270 8-mer (GCCCUGGG to GACGUGAC)]”, in the series with GST-Bicc1-KH [1] (vs labelled 66-110), the IC50 stood at 392 nM.

In the case of “UGAAGCCCUGGGUUCUAUUCGUAUGUGAUAUGUGGAGGUUAAAAAAAGGUGAAAAUUAGCUAUAGUGUAUGAUUAGCCCUGUGUGAGAGGGAACAUUCAUGCCACAAUCACUAACUCACGUCCUCCUCAGGAAUCCUCAGCAGUCCCGCAAGGUAGAAUUUCACCAUGGGUCAUUUUACAGAUGAGGAAACCGAAGCUAU [Dand5 3'-UTR 226-425 (distal) competitor]”, the IC50 with GST-Bicc1-KH [1] (vs labelled 1-225) is more than 1000 nM.

For the origin of these results see article PMC8249388.
